# Laboratory results from the supplement of paper PMC10724198.
# ± gives the standard deviation of the averaged measurements.
# Tested on: Saccharomyces cerevisiae
# Test: protein stability index of tFT-peptide fusion (C-terminal peptide) (PSI (0-1 scale)); higher = more stable (slower turnover)
# Conditions: genetic background: das1 deletion; temperature: 30 C
# Experimental: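 MPS profiling in S. cerevisiae of the yeast C-terminome library: the last 12 aa of each annotated ORF are fused to the C-terminus of a sfGFP-mCherry timer, after a GGGS linker. Cells are FACS-sorted into 8 mCherry/sfGFP bins and deep-sequenced. PSI runs from 0 (unstable) to 1 (stable); wild type and das1Δ backgrounds, two technical replicates each.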
row,Sequence,protein stability index
1,CSTRRSYLRYKK [YBR285W C-terminal 12 aa],0.705 ± 0.0047
2,CVNSASLNLKKD [MXR2 C-terminal 12 aa],0.695 ± 0.023
3,CVTQACGRTIKM [YBR141W-A C-terminal 12 aa],0.732 ± 0.037
4,DAIDNSDEITQD [IRR1 C-terminal 12 aa],0.709 ± 0.029
5,DALYRIIYGNIL [TIP20 C-terminal 12 aa],0.711 ± 0.02
6,DATRREVMTERK [LSM2 C-terminal 12 aa],0.672 ± 0.014
7,DAYHKAAEENKD [MCT1 C-terminal 12 aa],0.6729 ± 0.0053
8,DDEFGDLDAVFF [SNF6 C-terminal 12 aa],0.747 ± 0.021
9,DDIANNQSICCV [YPT11 C-terminal 12 aa],0.649 ± 0.02
10,DDSKILIEHLSE [PET54 C-terminal 12 aa],0.697 ± 0.024
11,DEFIKKNSDKIR [EXO84 C-terminal 12 aa],0.676 ± 0.047
12,DEMQDFLKKHAS [SWI6 C-terminal 12 aa],0.7311 ± 0.0031
13,DERLEQLKRLGI [HOM3 C-terminal 12 aa],0.7246 ± 0.0048
14,DERRQPVSNLRM [YDL163W C-terminal 12 aa],0.712 ± 0.018
15,DEVTYLMFSSIM [SPG1 C-terminal 12 aa],0.713 ± 0.011
16,DEWLNLHINIVE [SHU2 C-terminal 12 aa],0.741 ± 0.0062
17,DEWRAKYGGQQV [MES1 C-terminal 12 aa],0.675 ± 0.037
18,DFENKLKKKKRK [TMA64 C-terminal 12 aa],0.7268 ± 0.0047
19,DIDDDVGEDSED [RMR1 C-terminal 12 aa],0.694 ± 0.014
20,DIIYFRAGAGKN [OLA1 C-terminal 12 aa],0.691 ± 0.017
21,DILKILSSSFHN [SPC29 C-terminal 12 aa],0.7095 ± 0.0039

row,Sequence,protein stability index
1,DISVQQVKIASK [SPF1 C-terminal 12 aa],0.682 ± 0.018
2,DKAAPALKKVKM [SFL1 C-terminal 12 aa],0.675 ± 0.026
3,DKIDVVLKKISQ [ECM15 C-terminal 12 aa],0.7095 ± 0.0048
4,DKLAQRLRALRG [DID2 C-terminal 12 aa],0.699 ± 0.01
5,DKLSWSVRWEPR [URA4 C-terminal 12 aa],0.712 ± 0.021
6,DLEFEEQREPKL [NVJ2 C-terminal 12 aa],0.719 ± 0.006
7,DLKTGNAVKGEL [SSZ1 C-terminal 12 aa],0.669 ± 0.019
8,DLLDMIDSLGKL [FSH3 C-terminal 12 aa],0.688 ± 0.023
9,DNFMNNSDIFQN [TGL5 C-terminal 12 aa],0.741 ± 0.027
10,DPSKLRRVPVIQ [RGL1 C-terminal 12 aa],0.69 ± 0.018
11,DQAKDASPNAKK [RGM1 C-terminal 12 aa],0.694 ± 0.0073
12,DRKQSQATNATN [ARP7 C-terminal 12 aa],0.687 ± 0.016
13,DRVQRAFPKPDT [GLG2 C-terminal 12 aa],0.704 ± 0.016
14,DSEEKKSKKSKK [CBF5 C-terminal 12 aa],0.669 ± 0.056
15,DSHEDMKRRRLE [ROX3 C-terminal 12 aa],0.6865 ± 0.0045
16,DSIRRIREKYSN [APP1 C-terminal 12 aa],0.6896 ± 0.0039
17,DTFFDRVMKVLT [NAN1 C-terminal 12 aa],0.707 ± 0.034
18,DVLDDLYRKLQR [CSE2 C-terminal 12 aa],0.7138 ± 8.1e-05
19,DWQNGQVEDSIP [PEX14 C-terminal 12 aa],0.711 ± 0.023
20,DYKLRELIYDTI [AIP5 C-terminal 12 aa],0.7014 ± 0.0011
21,DYSFVNTFRDYE [HAL9 C-terminal 12 aa],0.697 ± 0.022

row,Sequence,protein stability index
1,EAAKKSEKKAKK [RPL34A C-terminal 12 aa],0.695 ± 0.0092
2,EAAKYFREQYKN [MET6 C-terminal 12 aa],0.7045 ± 0.0028
3,EATIENLKRLKL [VAS1 C-terminal 12 aa],0.693 ± 0.016
4,ECPGGCPGVAFI [RTC1 C-terminal 12 aa],0.7077 ± 0.0053
5,EDDITVVVVRVD [PTC7 C-terminal 12 aa],0.646 ± 0.019
6,EDEFLINSDDEM [CUE5 C-terminal 12 aa],0.726 ± 0.064
7,EDWSVEELIVDL [RPO26 C-terminal 12 aa],0.681 ± 0.009
8,EEANEDEEEDDW [MYO5 C-terminal 12 aa],0.6825 ± 0.0025
9,EEEAGYSDVEME [UTP5 C-terminal 12 aa],0.6936 ± 0.005
10,EEEKRRRKKGIR [SPT2 C-terminal 12 aa],0.706 ± 0.022
11,EEGEVVEEEAEK [HSP78 C-terminal 12 aa],0.678 ± 0.022
12,EELEAEQIDVFS [PRP8 C-terminal 12 aa],0.689 ± 0.023
13,EELFEEDSFYKY [NDT80 C-terminal 12 aa],0.736 ± 0.011
14,EEPQLDLLDDVL [MTW1 C-terminal 12 aa],0.706 ± 0.03
15,EESEKQLYTVLK [CUS1 C-terminal 12 aa],0.688 ± 0.0087
16,EETLEFDPTLLV [YBL062W C-terminal 12 aa],0.707 ± 0.0077
17,EFEENPNPTVEN [HSP42 C-terminal 12 aa],0.731 ± 0.033
18,EFHQDFFSKYRN [ALT2 C-terminal 12 aa],0.707 ± 0.011
19,EGENVRSKVERF [YKL070W C-terminal 12 aa],0.7262 ± 0.0046
20,EGKEEIIYDSEG [RAD55 C-terminal 12 aa],0.6913 ± 0.006
21,EGSGEFVGEMEI [MRS6 C-terminal 12 aa],0.708 ± 0.0019

row,Sequence,protein stability index
1,EHTMLAKAQGHD [XPT1 C-terminal 12 aa],0.71 ± 0.022
2,EIDGQFCIFQVV [YJL107C C-terminal 12 aa],0.711 ± 0.013
3,EIKPYLRFTKSK [PRX1 C-terminal 12 aa],0.692 ± 0.011
4,EIRKRRASSLKA [RPS6A C-terminal 12 aa],0.649 ± 0.021
5,EKIKRDLALKKG [PET100 C-terminal 12 aa],0.697 ± 0.045
6,EKLAALVENAEV [PUF3 C-terminal 12 aa],0.68 ± 0.0089
7,EKLQLWHSMSND [YOR008C-A C-terminal 12 aa],0.698 ± 0.0035
8,ELKAHNINVVDK [PNC1 C-terminal 12 aa],0.662 ± 0.037
9,ELNEEKRRSALP [SAK1 C-terminal 12 aa],0.687 ± 0.023
10,ELQEKVEQLSKW [POL3 C-terminal 12 aa],0.7208 ± 0.00089
11,ELYNIIVKSVPK [YRB2 C-terminal 12 aa],0.673 ± 0.0039
12,EMTHSLFKKYGI [CRC1 C-terminal 12 aa],0.705 ± 0.017
13,ENFNEVFEAIRS [RSC3 C-terminal 12 aa],0.6822 ± 0.0037
14,ENFSSALQSPIF [YDL152W C-terminal 12 aa],0.733 ± 0.0084
15,ENVLFYIGRVNK [COB C-terminal 12 aa],0.726 ± 0.026
16,EPYNIKYSNSKK [MSD1 C-terminal 12 aa],0.7 ± 0.03
17,EQLADYLIGVQY [PFY1 C-terminal 12 aa],0.686 ± 0.014
18,EQQNFEKCNEYI [NPL6 C-terminal 12 aa],0.691 ± 0.01
19,EQVRFKNINYKS [AZF1 C-terminal 12 aa],0.654 ± 0.0011
20,ERAYMYYLRNGK [NAM9 C-terminal 12 aa],0.656 ± 0.023
